According to US20020192214A1:

Target: human eosinophil eotaxin receptor CC CKR3, stably expressed in AML14.3D10 cells (human) (UniProt P51677)
Test: cell-based or functional assay

Sequence of human eosinophil eotaxin receptor CC CKR3, stably expressed in AML14.3D10 cells (human) (P51677 whole entry): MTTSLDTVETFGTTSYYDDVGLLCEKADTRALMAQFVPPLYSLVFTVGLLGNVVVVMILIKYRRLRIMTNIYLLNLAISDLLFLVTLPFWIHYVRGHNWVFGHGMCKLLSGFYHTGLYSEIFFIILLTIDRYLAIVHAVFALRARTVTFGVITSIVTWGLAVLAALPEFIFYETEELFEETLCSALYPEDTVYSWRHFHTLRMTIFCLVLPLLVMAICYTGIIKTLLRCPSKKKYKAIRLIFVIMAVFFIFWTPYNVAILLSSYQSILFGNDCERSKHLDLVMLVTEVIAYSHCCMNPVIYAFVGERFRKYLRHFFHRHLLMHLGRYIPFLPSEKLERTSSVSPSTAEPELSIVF

For “IL-8 (from UniProt P10145 28-99) (ligand)”, the Ca^2+-flux (intracellular Ca^2+ levels) was > 1 µM.
